Key:
Experiment in all cases: cleavage_in_vitro
[1] = system: T1, Nt.CviPII (His+) (Chlorella virus NYs-1); conditions: NEBuffer 4 (10 mM Mg acetate), 37 C 1 h
T1 sequence: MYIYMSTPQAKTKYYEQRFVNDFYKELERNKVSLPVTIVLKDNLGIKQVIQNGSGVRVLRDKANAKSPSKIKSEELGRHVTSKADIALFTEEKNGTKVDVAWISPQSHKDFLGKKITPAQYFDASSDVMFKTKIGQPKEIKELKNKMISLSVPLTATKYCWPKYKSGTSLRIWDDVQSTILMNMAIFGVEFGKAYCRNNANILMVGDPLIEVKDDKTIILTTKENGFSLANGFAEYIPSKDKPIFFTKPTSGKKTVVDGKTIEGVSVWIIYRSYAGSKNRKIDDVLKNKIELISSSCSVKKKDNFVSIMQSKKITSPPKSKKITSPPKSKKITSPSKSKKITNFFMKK

[2] = system: NPN297 (Nt.CviPII C-terminal truncation) (Chlorella virus NYs-1); conditions: 37 C 1 h; same specificity as wild type
[3] = system: NPN329 (Nt.CviPII C-terminal truncation) (Chlorella virus NYs-1); conditions: 37 C 1 h; same specificity as wild type

pUC19 plasmid
activity [1]: 9410 units/mg | activity [2]: 2600 units/mg | activity [3]: 1400 units/mg

Source: patent US20080268507
